Laboratory results published in the DeepSol protein solubility set.

experiment: soluble on expression in E. coli; label from the status in PepcDB or PDB records

Row | Sequence | soluble on expression in E. coli
1 | MADDDDRVDISNETLASLVGRPMSSSGNRIRATPSRRRLVSAPTNPRWSPSADDRRLFSYVSSMRSDSNSSSKSPSPPSAKMSKRPNGPYSVRKYQPRGSPPSDGSDKIHRFGESPTPGGVGGVFGTELDDLIIDELMGMEDDQRMRPGATRPMTIGGEKTMSMARPIPGASSRAGSGHSGSPITIPNAMSNNFRQVVSSSAPTSSIDIEKMIGAVSNGGGNSGGDNDPEDYYRDRRKKDIHNMIERRRRYNINDRIKELGQMLPKNTSEDMKLNKGTILKASCDYIRVLQKDREQAMKTQQQQKSLESTAHKYADRVKELEEMLARQGVQVPPSHLPPIPKVIERPIKQEIDESPPNHTPTGSFVSSSGFLSEVTNNTAAMQITSPNDSRPNNFMNNSAPSDSFFSVGSASPPDYRTSSGTASWKLPGSNAFSDLMMDDLNPMMNGDPLISSAGAHPSPHFHSSQMSPDIHWDASGFSPDPINTQQSNSGHYHMDFS | not soluble
2 | MADFAARLNKLFDTVHPPGRKPHTNAEVAAALIADGHQISKPYISQLRSGQRTNPSDETVAAFARFFKVKPDYFFNDIYAAKIDHDLELLSQLQGYGLRKLSSRAFDLSEESQNLLTTMAEKLRASEGLPEVPPDASR | not soluble
3 | MADFKVLSSQDIMWALHELKGHYAITRKDFESHQHMENLTSQDEVPRDTRPFLMPLKNGRSYHQKPVEKGKREKK | not soluble
4 | MADKSAYMSAGGYGSGYMGANASSSGYAREDYAQGGAGGSGNQNQGGSGGNTNPGGQVFKARTDQSCYLGP | not soluble
5 | MADQHPTAQRPIDAHGIIGDMRSAALVDDQGSIDFFCWPEFDSPSIFCSLLDSPAAGIFELAPVLADARRQQIYLPDSNVLQTRWLGTEAVVEVTDLLTIDDDPEQLPLLIRRVRVVSGQATLRLHCAPRLDYLEHHHHHH | not soluble
6 | MADRPQLSIIIPVFNEAKILQKSPTENTRQYLGQFTEDQRIEILIIDGGSQDSTVELCQTYADSLPLHVFISPQTGRANQMNYGASLSRSEWLLFLHLDSILPHDFFTQIAEILTNSSYIAGAFGLTIDLPGRPYRWLEKLILWRSIYAQKPYGDQGLFIQRQDFQQLGGFADLPIMEDYQFMQKLGKQRGKVAIAGGKVITSGRRWQKLGLLRTTAINQLVVAGYHLGVSPQTLVHWYRGAKPNRGNRPNSDGTSCLEHHHHHH | soluble
7 | MADRRNLFFFYGDDKATLVEKMKPIYRILEENGFTILDHPKNANAIVSVGDDATFLQAVRKTGFREDCLYAGISTKDEISFYCDFHIDHVDTALQEITKNEIEVRKYPTIQVDVDGSTSFHCLNEFSLRSSIIKTFVVDVHVDDLYFETFRGDGLVVSTPTGSTAYNKSLHGAVVDPLIPCFQVSELASLNNNTYRTLGSPFILNHERTLTLKLRPDGNDYPVIGMDNEALSIKQVEKAVVRLSDKQIKTVKLKNNSFWEKVQRTFLLEHHHHHH | soluble
8 | MADSTPILFDRRLLAARLHRAAALGPAPFLLDRVAEEMDERLHAVLRDFTEVADLWTPGGLKLQRFPKLAHLAVDPSGSEALPFAPGSLDLVVSALALQFANDLPGVLAQLRRALKPDGLLLAALTGGETLTELRQAFASAEAEIEGGVSPRVAPAADLRDLGALLQRAGFALPVTDVDRVVVRYDHAFALMQDLRRMGATNVLIERRRTPLRRATLTRMAQIYADRFSDPDGRIRATFEIVWLSGWSPHESQQQPLKPGSAKVSLEEAVRGKRLEHHHHHH | not soluble
9 | MADWVTGKVTKVQNWTDALFSLTVHAPVLPFTAGQFTKLGLEIDGERVQRAYSYVNSPDNPDLEFYLVTVPDGKLSPRLAALKPGDEVQVVSEAAGFFVLDEVPHCETLWMLATGTAIGPYLSILRLGKDLDRFKNLVLVHAARYAADLSYLPLMQELEKRYEGKLRIQTVVSRETAAGSLTGRIPALIESGELESTIGLPMNKETSHVMLCGNPQMVRDTQQLLKETRQMTKHLRRRPGHMTAEHYW | soluble
10 | MADYYGLFTSDTRSVSDGESDGERRLRRSRRKRGGGRFRPYSPDYSDDEKTKPTKKNQKRPDKQDRFGMAPPNSTQFLLEDREARADAEFENEQKFEAAERRRVRTMSGSYEHMRPAYWCTIEPATTTADFGSDDNNDLDSTSGESEADREMEREFETDYLEVKRERIQSMTRSQLAAELLERDQDTQVLTRELGSKETENRHLRSLLSAHGISPDEPVTSTTAIVVGQSKSPVVAN | not soluble
11 | MAEDFSVVVLASDLGIDARPFLTRSDDVDEQENWHDCPQYLGDEDFSDLDLLQFFTLQGLDRSGNRIFRIVGKYFPARVVSAERLKKYISQKISNQCPEGPLCLVYMHSTVQKDDNSPGITILRWIYEDLPSDIKDRLQLVYFIHPGLRSRLVIATLGRLLLSGGLYWKIKYVSRLQYLWEDIKKGEVEIPDFVKNHDNVLEHRPLTDYGIEPDPFQLSEVQSSSFSLNRYENRWVS | soluble
12 | MAEDIFRVATVEDAPEFLELLSSAFKSVKELGIDWPSTNADLAMVTENIVNSSAFVLERNGKLISTITVRFPWESSSPPSKYPFVWWFATAPELAGQGIGDKLLTYVEERVLRDTLKAPALTLGTSARKHPWLLDMYLRRGYEVYFEHEEDGDVGVMMRKILIPEKFDATLLGIPSWT | not soluble
13 | MAEELVLERCDLELETNGRDHHTADLCREKLVVRRGQPFWLTLHFEGRNYQASVDSLTFSVVTGPAPSQEAGTKARFPLRDAVEEGDWTATVVDQQDCTLSLQLTTPANAPIGLYRLSLEASTGYQGSSFVLGHFILLFNAWCPADAVYLDSEEERQEYVLTQQGFIYQGSAKFIKNIPWNFGQFQDGILDICLILLDVNPKFLKNAGRDCSRRSSPVYVGRVGSGMVNCNDDQGVLLGRWDNNYGDGVSPMSWIGSVDILRRWKNHGCQRVKYGQCWVFAAVACTVLRCLGIPTRVVTNYNSAHDQNSNLLIEYFRNEFGEIQGDKSEMIWNFHCWVESWMTRPDLQPGYEGWQALDPTPQEKSEGTYCCGPVPVRAIKEGDLSTKYDAPFVFAEVNADVVDWIQQDDGSVHKSINRSLIVGLKISTKSVGRDEREDITHTYKYPEGSSEEREAFTRANHLNKLAEKEETGMAMRIRVGQSMNMGSDFDVFAHITNNTAEEYVCRLLLCARTVSYNGILGPECGTKYLLNLTLEPFSEKSVPLCILYEKYRDCLTESNLIKVRALLVEPVINSYLLAERDLYLENPEIKIRILGEPKQKRKLVAEVSLQNPLPVALEGCTFTVEGAGLTEEQKTVEIPDPVEAGEEVKVRMDLVPLHMGLHKLVVNFESDKLKAVKGFRNVIIGPA | soluble
14 | MAEEQQNSDQSNGGNVIPTPEEVATFLHKTVEEGGWEKCWEEEITPWDQGRATPLIVHLVDTSSLPLGRALVPGCGGGHDVVAMASPERFVVGLDISESALAKANETYGSSPKAEYFSFVKEDVFTWRPTELFDLIFDYVFFCAIEPEMRPAWAKSMYELLKPDGELITLMYPITDHVGGPPYKVDVSTFEEVLVPIGFKAVSVEENPHAIPTRKGKEKLGRWKKIN | not soluble
15 | MAEIEKTVLVGYSASQMFRLVDTVENYPDFLPWCSGASMKLMEDNETAQATVHIDYHHIKHSFTTKNTRHPPELIKMELVEGPFEKLNGYWRFIPLSENACKIEFQLHYTFSHKLLEKLVGPVFYVIANNFVEAFVEQAEKIYGPSILEHHHHHH | soluble
16 | MAEILERSGYLVKVRVEVPADRVKASYEALLKDLASRVRVPGFRPGKAPLKVVEARLGREALLQDLKERLVEETYPEAVRELGLSPVAARVVEQDLSEGEGFRYVAEVENYPEVRLPDWRSFALEVSPPEVTEEMVEKALEELRQRYAELVPVEREAQEKDHLFVRTEEGAEFPIDLAKALPHVREALLGKKAGDVVMVPVLNDKGEKVREVRTEVLEVKTLKLPELDEEFAKTLEAESLEDLKNRVRESLKRQAERAYEEARERAFLEKLAEGLEVEIPPSMLRAEERHLLEHLAEDLYRQGISLEAYLEALKEKGELEKFQEDLRKEAEKRVRIALAREKLAEELNPEVSEEEWQAYLQAAARAYGVAVQDLRRQFGEEGLARLKERLRQDKAVQEALKALG | soluble
17 | MAEITFKGGPVTLVGQEVKVGDQAPDFTVLTNSLEEKSLADMKGKVTIISVIPSIDTGVCDAQTRRFNEEAAKLGDVNVYTISADLPFAQARWCGANGIDKVETLSDHRDMSFGEAFGVYIKELRLLARSVFVLDENGKVVYAEYVSEATNHPNYEKPIEAAKALVK | soluble
18 | MAEKIKINNNVFIYPMPVTLLGANVKGKANLMALGWVSRVNANPPMLGVGVNKSHYTPEGIAENGSFSVNFPYSGMVKKTDYCGLVSGEKVDKSGLFEVFYGELKTAPMIKECTLNLECRVVETLEFPTNYFFVGEIIAAYSEEQYLIQGKPDIKKMDPLLLTMPDNSYWTVGDYAGAALKTGKSLMEKRHHHHHH | soluble
19 | MAEKKLEENPYDLDAWSILIREAQNQPIDKARKTYERLVAQFPSSGRFWKLYIEAEIKAKNYDKVEKLFQRCLMKVLHIDLWKCYLSYVRETKGKLPSYKEKMAQAYDFALDKIGMEIMSYQIWVDYINFLKGVEAVGSYAENQRITAVRRVYQRGCVNPMINIEQLWRDYNKYEEGINIHLAKKMIEDRSRDYMNARRVAKEYETVMKGLDRNAPSVPPQNTPQEAQQVDMWKKYIQWEKSNPLRTEDQTLITKRVMFAYEQCLLVLGHHPDIWYEAAQYLEQSSKLLAEKGDMNNAKLFSDEAANIYERAISTLLKKNMLLYFAYADYEESRMKYEKVHSIYNRLLAIEDIDPTLVYIQYMKFARRAEGIKSGRMIFKKAREDARTRHHVYVTAALMEYYCSKDKSVAFKIFELGLKKYGDIPEYVLAYIDYLSHLNEDNNTRVLFERVLTSGSLPPEKSGEIWARFLAFESNIGDLASILKVEKRRFTAFREEYEGKETALLVDRYKFMDLYPCSASELKALGYKDV | soluble
20 | MAELKLEHIKKTYDNNNTVVKDFNLHITDKEFIVFVGPSGCGKSTTLRMVAGLESITSGDFYIDGERMNDVEPKNRDIAMVFQNYALYPHMTVFENMAFGLKLRKVNKKEIEQKVNEAAEILGLTEYLGRKPKALSGGQRQRVALGRAIVRDAKVFLMDEPLSNLDAKLRVQMRTEILKLHKRLNTTTIYVTHDQTEALTMASRIVVLKDGDIMQVGTPREIYDAPNCIFVAQFIGSPAMNMLNATVEMDGLKVGTHHFKLHNKKFEKLKAAGYLDKEIILGIRAEDIHEEPIFIQTSPETQFESEVVVSELLGSEIMVHSTFQGMELISKLDSRTQVMANDKITLAFDMNKCHFFDEKTGNRIV | not soluble
21 | MAELPKTLEEAITQSREAVKSALADGVTRIQVDFLFPELKFMPVAEQFVPLFAEYESRVKVFFADAGAAALARRDWQNVPFKVEDIGTGRAASLQTKIQPEDEIFLFIAPTPVEVPQLEKMCEIIDTRPIVLLNPRLEDSGVVGIGYAARETRRRFISTIESCYYLRPVDDESALFRCYPGQWEVWLESNNEYEKIAELPKRPSGDEIDMILMKGQPAKPSEGTPAKKP | soluble
22 | MAENYQQAAKDIIQLIGMDNIISVTHCQTRLRFILKDHEQVDGKQLEKIDLVKGVFYNGGQYQVILGTGIVTKVYDEIEKLGINVVSKAEQTAI | not soluble
